Test: yeast display, Sf9 membrane polyspecificity reagent, FACS + sequencing; frameworks hold sequencing errors
Method in brief: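 After 36–48 hours of galactose induction, yeast (Saccharomyces cerevisiae BJ5465) displaying a synthetic nanobody library were stained at 4 °C for 1 hour with 10% biotinylated, detergent-solubilized Sf9 membrane reagent. Streptavidin microbeads enriched the stained cells before FACS sorting into low and high (top ~1%) gates on anti-HA and streptavidin fluorescence. Each clone's polyreactivity label reflects its gate of origin.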

Sequence	polyreactivity (PSR sort gate)
QVQLVESGGGLVQAGGSLRLSCAASGIIFDGNAMGWYRQAPGKERELVASITSDSSTNYADSEKGRFTISRDNAKNTVYLQMNSLKPADTAVYYCAADHWIAPRRDYWGQGTQVTVSS	low polyreactivity
QVQLVESGGGLVQAGGSLRLSCAASGRIFWYYAMGGYRQAPGKERELVASITSGGRTKYADSVKGRFTISRDNAKNTVYLQMNSLKPEDTAVYYCAARLLIDYHADWWVAYDYWGQGTQVTVSS	low polyreactivity
QVQLVESGGGLVQAGCSLRLSCAASGFIFDDYDMGWYRQAPGKERELVAAISWSGGSTYYADSVKGRFTISRDNAKNTVYLQMNSLKPEDTAVFYCNADYYRSRYDYWGQGTQVTVSS	high polyreactivity
QVQLVESGGGLVQAGGSLRLSCAASGSTFTIYAMGWYRQATGKERELVATIRAGGGRTSYADSVKGRFTISRDNAKNTVYLQMNSLKPEDTAVYYCAVYVRPTRYGYWGQGTQVTVSS	high polyreactivity
QVQLVESGGGLVQAGGSLRLSCASSVRIFEVYAMGSYRQAPGKERELVADITYSGGSTYYADSVKGRFTISRDNAMNTVYLQMNSLKPEDTAVYYCAADVTFVHRYEYYRSYDYWGQGTQVTVSS	low polyreactivity
QVQLVESGGGLVQAGGSLRLSCAASGNIFAYYALGWYRQAPGKEREFVAAIRSSGVSTYYADSVKGRFTISRDNAKNTVYLQMNSLKPEDTAVYYCAADSITGGWLIVSPPYNYTYDYWGQGTQVTVSS	low polyreactivity
QVQLVESGGGLVQAGGSLRLSCAASGSTGVYAMGWYRQAPGKERELVADITSGGNTDYADSVKGRFTISRDNAKNTVYLQMTSLKPEDTAVYYCAADDYYVLDYFWFIEYGYWGQGTQVTVSS	high polyreactivity
QVQLVESGGGLVQAGGSLRLSCAASGFNFYRYTLGWYRQAPGKERELVASITRRCGSTYYADSVKGRFTISRDNAKHTVYLQMNILKQEDTAEYYCNDATPVWQSGTYDYWGQGTQVTVSS	high polyreactivity
QVQLVESGGGLVQAGGSLRLSCAASGRIFSQYAMGWYRQAPGKERELVAAISRRTGSTYYADSVKGRFTISRDNAKNTVYLQMNSLKPEDTAVYYCNKARLGWSYRQDDYWGQGTQVTVSS	high polyreactivity
QVQLVESGGGLVQAGGSLSLSCAASGRTFGPYAMGWYRKAPGKERELVAVISGRGTSTYYADSVKGRFTISRDNAKNTVYLQMNSLKPEDTAVYYCNADYGSWYWGFDYWGQGTQVTVSS	low polyreactivity
QVQLVETGRGLVQAGGSLRLSCAASGLTFKFNAMGWYRQAPGKEREFVAAISRSGGRTYYAESVKGRFTISRDNAKNTVYFQMNSLKPEDTAVYFCADEEIVYYPVLFEYDYWGQGTQVTASS	high polyreactivity
QVQLVESGGGLVQAGGSLRLSWAASGGIFKVYGMRWYRQAPGKERELVAAISWTTGGTYYADSVKGRFTISRDNAKNTVYLQMNSLKPEDTAVYYCAAEYADSWSAFDWNYYYWGQGTQVTVSS	high polyreactivity
QVQLVESGGGLVQAGGSLRLSSGASGRIFAVYAMGWYRQAPGKERELVAAISYIGGSTYYADSVKGRFTISRDNAKNSVYLQMNSLKPEDTAVYYCATDSHDDTGAYDYWGQGTQVTVSS	low polyreactivity
QVQLQESGGGLVQAGGSLRLSCAASGSISILENMGWYRQPPGLGRDFVAGIGYGSSTYYADSVKGRFTISRDNAKNTVYQQMNSLKPEDTTVYYCAVVEYQCVTYLYWGQGSQVTVSS	low polyreactivity
QVQLVESGGGLVQAGGSLRISCAASGHIFFYYTMGWYRPAPGKERELVAGITIGGSTNYADSVKGRFTISRDNAKNTVSLQMNSLKPEDTAVYYCNVVKYVYIYSYWEYYYWGQGTQVTVSS	low polyreactivity
QVQLVESGGGLVQAGGSLRLSCAASGFIFSAYSMGWYRPEPGKERELVAAISYSGGTTYYADSVKGRFTISRDNAKNTLYLQMNSLKPEDTAVYYCAAGVGYWGQGTQVTVSS	high polyreactivity
LEQLVESGGGLVHAGGSLRLSCAASRSNFPQYTLGWNRQAPVKERELVAAISNYGSSTYYADSEKGRFTISRDYAKNSVSLQMNSLKPEDTAVYECNADDYGYYPGVNYWGQGTQVTVSS	low polyreactivity
QVQLVESGGGLVQAGGSLRLSCAASGIFDPNAMGWYRQAPGKERELVAAITSGGSTNYADSVKGRFTISRDNAKNTVYLQMNSLKPEDTAVYYCNADSYDEIKYGYWGQGTQVTVSS	low polyreactivity
QVQLVESGGGLVQAGGSLRLSCAASGFTFWRYAMGWYRQAPGKERELVAAISRSGGGTYYADSVKGRFTISRDNAKNTVYLQMNSLKPEDTAVYYCAAALYKGSGELDYWGQGTQVTVSS	high polyreactivity
QVQLVESGGGLVQAGGSLRLSCAASGLTFPPYAMGWSRQAPGNERELVAAISRIRGRTYYADSVKGRFTISRDTAKNTVYLQMNSLKPEDTAVYYCAADGIKGGDEYDYWGQGTQVTVSS	high polyreactivity
QVQLVESGGGLVQAGGSLRLSCAASGRIFGYNDMGLYRQAPGKERELVAAINWTGGSTYYADSVKGRFTISRDNAKNTVYLQMNSLKPEDTAVYYCNADARTKWVQTHTDFITDYDYWGQGTQVTVSS	low polyreactivity

Sequence	polyreactivity (PSR sort gate)
QVQLVESGGGLVQAGGSHRLSCAASGRTFANYAMGWYRQAPGKERELVAAITSGGRTYYADSVKGRFTISRDNAKNTVYLQMNSLKPEDSAVYYCAADYTYDYQNDYWGQGTQVTVSS	high polyreactivity
QDQLVYSGGGLVQAGGSLSISCASSVSTFGGYAMGWYRQAPGKERELVSAITWSAGSTYADSVKGRFTISRDNAKNTVYLQMTSLKPEDTAVYYCAAYPYVGYVSLSAYDYWGQGTQVTVSS	low polyreactivity
QVQLVESGGGLVQAGGSIRLSCAASGSTFDYYAMGWYRQAPGKDRELVAAITTSGSSTFYADSVKGRFTIARDNAKNTVYVQMNSLKPEDTADYYCAAVFRWARQRWLDYWGQGTQVTVSS	high polyreactivity
QVQLVESGGGLVQAGGSLRLSCAASGRISRLYAMGWYRQAPGKERELVAAITDSGGSTYYADSVKGRFTISRDNAKNTVYLHMNSLKPEDTAVYDCAATWSNWYREYYYWGQGTQVTVSS	high polyreactivity
QVQLVESGGGLVQAGGSLRLSCAASGSTFYPNAMGWYRQAPGKERELVAAISRGTRTKYADSVKGRFTISRDNAKNTVYLQMNSLKPEDTAVYYCAADTGTGLDWGQGTQVNVSS	high polyreactivity
QVQLVASGGGLVQAGGSLRLSCAASGSTFPRYAMGWYRQAPWKERELVAAITTSGGSTYYADSVKGRFTISRDNAKNTVYLQMNRLKPEDTAVYYCAADYCYYLDAGYYWGQGTQVTVSS	low polyreactivity
QFHLVESGGGLVQAGGSLRLSCAAAGYTYGYYTMGWYRQAPGKERELVAAIDSGGRTNYADSVKGRFTISRDNAKNTVYLQMNSRKPEDTAVYYCAAESPLYWVDDFESGWRYYYWGQGTQVTVSS	low polyreactivity
QVQLVESGGGLVQAGGSLRLSCDASGSTLSENVMGWYRQAPGKERELVATISYSGDSTYYADSVKGRFTISRDNAKNTVYLQMNSLKPEDTAVYYCAAGVGWDFAYWGQGTQVTVSS	low polyreactivity
QVQLVESGGGLVQAGGSLRLAVLPPDLPSTLNDMGWYRQAPGKERELVAAITRGGSTNYADSVKGRFTISRDNAKNTVYLQMNSLKPEDTAVYYCAAPYAGWRDGGDYWGQGTQVTVSS	low polyreactivity
QVQLVESVGGLDQAGGTLRLSCAASALIFAYYAMGGYRQAPGKERELVAAITSSGTSTYYADSVKGRFTISRDNAKNTVYLQMNSLTPEDTAVYYCAASDRRLTGVGADEYWGQGTQVTVSS	high polyreactivity
QVQLVESGGGLVQAGGILRLSCAAYGRTFSRYGMGWYRHAPGKERQLVADITWRGDSTYYADSVKGRFTISRDNAKNTVYLQMNSLKPEDTAVYYCAVYWRSLYYGYTYDYWGQGTQVTLSS	high polyreactivity
QVQLGESGGGLVQAGGSLRLSCAASGFTFYRYTLGWYRQAPGKERELVASITRRGGSTYYADSVKGRFTISRDNAKNYVYLQMNSLKPEDTAVYDCNAATPVWQSGTYEYWGQGTQVTVSS	high polyreactivity
QVQLVESGGGLVQAGGSLRLSCAASGSISGGYAMGWYRQAPGKERELVAVIDSGGSTYYADSVKGRFTISRDNAKNTVYLQMNSLKPEDTAVYYCNADYSSQDNFDYWGQGTQVTVSS	low polyreactivity
QVQLVESWGGLVQAGASLRLSCAASGRILPYYAMGWYRQAPGKERELVATISSGGRTNYADSVKGRFTISRDNAKITVYLQMNSLKPEDTEVYFCNKYGFKGGVGYDYWGQGTQVTVSS	high polyreactivity
QVQLVESGGGLVQAGGSLRLSCAASGSIFEYYTMGWYRQAPGKEREFVAAITFTGDSTYYADSVKGRFTISRDNAKNTVYLQMNSLKPEDTAVYYCNADSVTYDGEYDYWGQGTQVTVSS	low polyreactivity
QDQHVESGGGLVQAGGSLRLSCAASGGTFVPYAMGWYRQAPGKERELVARISKRGGTTYYADSVKGRFTISRDIAKNTVYLQMNSLKPEDTAVYYCAAGLPARGYYWGQGTQVTVSS	high polyreactivity
QVQLVESGGGLVQAGGSLRLSCAASGFIFGSNAMGWYRQAPGKERELVAAISRSGGSTYYADSVKGRFTISRDNAKNTVYLQMNSLKPEDTAVYYCASYLYKSRYLPEYDYWGQGTQVTVSS	high polyreactivity
QVQLVESGGGLVQAGGSLRLSCAASGITLHYYAMGWYRQAPGKERELVATISRSGGSTYYADSVKGRFTISRDNAKNTVYLQMNSLKPEDTAVYYCAARSWGGYDSRGYWGQGTQVTVSS	high polyreactivity
QVQLVESGGGLVQAGGSLRLSCAASGRIVVPYAMGWYRQAPGKERELVAAITSGGSTYYADSVKGRFTISRDNAKNTVYLQMNSLKPEDTAVYYCAATSRRSSETYYFWGQGTQVTVSS	high polyreactivity
QVQLVESGGGLVQAGGSLRLSCAASGSFYDRYVMGWYRQAPGKERELVAAISSSGGSTYYADSVKGRFTISRDNAKNTVYFQMNSLKPEDSAVYYCAAKFSYGRYNYWGQGTQVTVSS	high polyreactivity
